17 molecules from patent US20250002576A1 (FUSION PHARMACEUTICALS, published 2025) can be followed below.

Substitutions are numbered along the chain they refer to.

T1: hCLDN18.1 (antigen of the scFv screening) (human, UniProt P56856 28-80)
T1 construct: ELISA or flow cytometry according to the selection strategy
T1 sequence (looked up): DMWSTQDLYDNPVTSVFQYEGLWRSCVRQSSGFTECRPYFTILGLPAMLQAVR

B1: YU577-E12 (scFv as screened) (scFv, V domains shown)
VH: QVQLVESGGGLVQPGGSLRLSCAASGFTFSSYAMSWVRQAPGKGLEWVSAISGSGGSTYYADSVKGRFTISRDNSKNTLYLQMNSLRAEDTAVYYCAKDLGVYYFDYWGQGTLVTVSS
VL: DIVMTQSPSFLSASAGDRVTITCRASQGISSYLAWYQQKPGKGPKLLIYAASTLQSGVPSRFSGSGSGTEFTLTISSLQPEDFATYYCQQVNSYPLTFGPGTKVDIK
B2: YU578-D01 (scFv as screened) (scFv, V domains shown)
VH: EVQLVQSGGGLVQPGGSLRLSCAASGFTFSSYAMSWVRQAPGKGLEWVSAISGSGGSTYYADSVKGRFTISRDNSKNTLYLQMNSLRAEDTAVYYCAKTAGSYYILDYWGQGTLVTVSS
VL: DIQLTQSPSSLSASVGDRVTITCRASQGISNYLAWFQQKPGKAPKSLIYAASSLQSGVPSKFSGSGSGTDFTLTISSLQPEDFATYYCQQYNSYPLTFGGGTKVDIK
B3: YU577-H07 (scFv as screened) (scFv, V domains shown)
VH: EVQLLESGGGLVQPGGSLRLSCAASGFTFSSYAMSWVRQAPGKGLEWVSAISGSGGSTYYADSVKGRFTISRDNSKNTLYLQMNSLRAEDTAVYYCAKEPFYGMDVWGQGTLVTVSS
VL: DIQMTQSPSSVSASVGDRVTITCRASQGISSWLAWYQQKPGKAPKLLIYAASSLQSGVPSRFSGSGSGTDFTLTISSLQPEDFATYYCQQANSFPLTFGGGTKLEIK
B4: YU574-D03 (scFv as screened) (scFv, V domains shown)
VH: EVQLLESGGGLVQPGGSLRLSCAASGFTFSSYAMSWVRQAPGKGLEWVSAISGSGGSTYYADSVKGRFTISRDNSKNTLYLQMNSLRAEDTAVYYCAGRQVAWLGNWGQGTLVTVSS
VL: B3 VL with Q3V, L104V, E105D
B5: YU577-B11 (scFv as screened) (scFv, V domains shown)
VH: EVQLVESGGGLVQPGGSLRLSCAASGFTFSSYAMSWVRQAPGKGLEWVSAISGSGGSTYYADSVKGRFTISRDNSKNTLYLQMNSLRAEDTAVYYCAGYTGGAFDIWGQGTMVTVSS
VL: B3 VL
B6: YU575-H03 (scFv as screened) (scFv, V domains shown)
VH: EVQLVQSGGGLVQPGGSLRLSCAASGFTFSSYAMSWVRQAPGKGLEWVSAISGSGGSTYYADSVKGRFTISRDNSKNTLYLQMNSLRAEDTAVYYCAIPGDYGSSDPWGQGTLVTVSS
VL: QSVLTQPPSVSGAPGQRVTISCTGSSSNIGAGYDVHWYQQLPGTAPKLLIYGNSNRPSGVPDRFSGSKSGTSASLAITGLQAEDEADYYCQSYDSSLSGYVFGTGTKLTVL
B7: YU574-E07 (scFv as screened) (scFv, V domains shown)
VH: QVQLQESGGGVVQPGRSLRLSCAASGFTFSSYGMHWVRQAPGKGLEWVAVISYDGSNKYYADSVKGRFTISRDNSKNTLYLQMNSLRAEDTAVYYCAKDQRGGLYGMDVWGQGTLVTVSS
VL: B6 VL with V10A, Y100W, T104G
B8: YU574-D11 (scFv as screened) (scFv, V domains shown)
VH: QVQLVQSGGGLVQPGGSLRLSCAASGFTFSSYAMSWVRQAPGKGLEWVSAISGSGGSTYYADSVKGRFTISRDNSKNTLYLQMNSLRAEDTAVYYCAGGANGFDPWGQGTLVTVSS
VL: B6 VL with Y100L, T104G
B9: YU578-F02 (scFv as screened) (scFv, V domains shown)
VH: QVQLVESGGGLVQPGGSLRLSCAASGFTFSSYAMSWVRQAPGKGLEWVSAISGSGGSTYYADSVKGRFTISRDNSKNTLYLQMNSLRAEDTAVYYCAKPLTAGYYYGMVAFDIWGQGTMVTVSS
VL: B1 VL with A15V, G43A, V91L, L96I, P100Q, V104L, D105E
B10: YU577-E08 (scFv as screened) (scFv, V domains shown)
VH: QVQLVQSGAEVKKPGASVKVSCKASGYTFTSYYMHWVRQAPGQGLEWMGIINPSGGSTSYAQKFQGRVTMTRDTSTSTVYMELSSLRSEDTAVYYCATRQFDYWGQGTLVTVSS
VL: QSVLTQPPSVSAAPGQKVTISCSGSSSNIGNNYVSWYQQLPGTAPKLLIYENNKRPSGIPDRFSGSKSGTSATLGITGLQTGDEADYYCGTWDSSLSAAVFGGGTKVTVL
B11: YU574-H09 (scFv as screened) (scFv, V domains shown)
VH: QVQLVQSGAEVKKPGASVKVSCKASGYTFTSYYMHWVRQAPGQGLEWMGIINPSGGSTSYAQKFQGRVTMTRDTSTSTVYMELSSLRSEDTAVYYCARGGSGFDYWGQGTLVTVSS
VL: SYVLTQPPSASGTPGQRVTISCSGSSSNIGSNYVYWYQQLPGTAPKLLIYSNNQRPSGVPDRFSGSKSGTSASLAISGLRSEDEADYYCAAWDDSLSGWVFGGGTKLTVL
B12: YU577-B01 (scFv as screened) (scFv, V domains shown)
VH: EVQLVESGGGVVQPGRSLRLSCAASGFTFSSYGMHWVRQAPGKGLEWVAVISYDGSNKYYADSVKGRFTISRDNSKNTLYLQMNSLRAEDTAVYYCAKDVTYYYDSSGSPDFDYWGQGTLVTVSS
VL: B2 VL with L96Y, T97S, G100Q, D105E
B13: YU574-D03 (antibody, V domains shown)
VH: not shown
VL: B3 VL with Q3V, L104V, E105D
B14: YU577-H07 (antibody, V domains shown)
VH: not shown
VL: B3 VL
B15: YU575-H03 (antibody, V domains shown)
VH: not shown
VL: B6 VL
B16: YU578-F02 (antibody, V domains shown)
VH: not shown
VL: B1 VL with A15V, G43A, V91L, L96I, P100Q, V104L, D105E
B17: YU574-H09 (antibody, V domains shown)
VH: B11 VH
VL: not shown

One assay has as its target T1, hCLDN18.1 (antigen of the scFv …). The assay can be described thus: ELISA or flow cytometry, scFv screening. Here is the method: A naïve human antibody library was used to select CLDN18.2 antibodies and incubated with CLDN18.2 antigen or CLDN18.2-expressing cells for four rounds of biopanning, following the strategy described in Table 3. Monoclonal antibody clones were selected, produced as scFv antibodies, and screened using ELISA (clones identified from Strategy 1 or 2) or flow cytometry (clones identified from Strategy 3 or 4) to identify clones with hCLDN18.2 affinity and no hCLDN18.1 cross-reactivity. 188 such clones were and subsequently sequenced, yielding 68 unique antibodies. The unique antibodies were further screened using flow cytometry to identify clones with mCLDN18.2 affinity, yielding 50 human/mouse cross-reactive antibody clones.
Regarding B1, the binding result is “no binding”. On to B2, for which the binding result is on record as “no binding”. In the case of B3, the binding result is “no binding”. B4: the binding result is “no binding”.

With B5, the binding result is recorded as “no binding”. B6: the binding result was “no binding”. As for B7, the binding result is recorded as “no binding”. With B8, the binding result is recorded as “no binding”. The same measure, in the same setting: the value for B9 was “no binding”; that for B10 was “no binding”. With B11, the binding result is “no binding”.

With B12, the binding result is “no binding”.

The target of a further assay is lysozyme. The assay can be described thus: non-specific binding ELISA, lysozyme immobilized. Here is the method: DNA, LPS, lysozyme, and cell lysate were immobilized onto microtiter plates. Testing antibodies were added to the wells and incubated. Bound antibodies were detected via a fluorescently-labeled substrate. The fluorescence intensity was normalized to the signal of a control antibody (trastuzumab). Higher normalized signal correlates to stronger off-target or non-specific binding.
As for B13, the “normalized signal (fluorescence intensity normalized to trastuzumab)” value (“normalized signal” below) was found to be 1.1.

B14: the “normalized signal” value was determined as 1.3. In the case of B15, the “normalized signal” value came out at 0.9. Still for that read-out and setting: the value for B16 was 1; that for B17 was 1.3.
